Test results published in patent publication US20250237641A1 (priority 2021, published 2025).

Columns and labels:
SARS-CoV-2 = test: Plaque assay of supernatants from SARS-CoV-2 infected kidney organoids treated with remdesivir; assay type: cell-based; conditions: 2 μM remdesivir immediately after infection with SARS-CoV-2 or SARS-CoV-2-mNG; vs untreated organoids
Method: Mean±SEM of three independent experiments. Paired t-test, **p<0.01.
To investigate the efficacy of remdesivir, kidney organoids were infected with SARS-CoV-2 or SARS-CoV-2-mNG, and then treated with a 2 μM dose of remdesivir immediately after infection (FIG. 5A).

kidney organoids = conditions: short term, at the efficacious dose (2 μM)
COVID-19 patients = conditions: cited from earlier work
[1] = system: kidney organoid podocytes; test: Time-lapse imaging of GFP-PODXL kidney organoids under prolonged treatment (podocyte integrity, organoid size); assay type: cell-based, human
Method: It was determined whether podocytes are damaged by prolonged IFN-γ treatment. As shown at FIG. 24A, an example time course for prolonged IFN-γ treatment involves regular imaging of organoids during treatment of mature organoids with IFN-γ prior to fixation. […] Further, podocyte junctional tracks appear intact with 7d IFN-γ treatment (results from confocal immunofluorescence microscopy of control versus 7d IFN-γ treatment; markers: ZO-1, Synaptopodin, ZO-1+Synaptopodin, APOL1, and DAPI). Based on these observations, it was concluded that podocytes appear largely undamaged by prolonged IFN-γ treatment.

APOL1 expression = APOL1 expression in kidney organoids on agonist (IFN-γ) treatment, immunofluorescence; assay type: cell-based, human
Method: Experiments were performed to determine APOL1 localization in normal human kidney and stimulation in kidney organoids.

[2] = system: kidney organoid endothelial networks; test: Endothelial networks and tubular structures of kidney organoids under prolonged IFN-γ treatment; assay type: cell-based, human; conditions: prolonged (7d) treatment
From the text: As such, it was next determined whether JAK ½ inhibition prevents IFN-γ-induced loss of endothelial networks and disorganization of tubular structures. […] As a result, it was concluded that JAK ½ inhibition prevents IFN-γ-induced loss of endothelial networks and disorganization of tubular structures.

[3] = prolonged treatment of mature organoids

CCC(CC)COC(=O)[C@H](C)N[P@](=O)(OC[C@H]1O[C@@](C#N)(c2ccc3c(N)ncnn23)[C@H](O)[C@@H]1O)Oc1ccccc1 [remdesivir]
reduced replicated virus in supernatants (plaque assay) (SARS-CoV-2): 71.4%±18%
safety in kidney cells (kidney organoids): supports short term safety
tolerability (COVID-19 patients; AKI and CKD patients): tolerated well
risk of developing AKI (COVID-19 patients; remdesivir-treated patients): increase chances of developing AKI

tunicamycin [reference compound]
organoid size [1, 3]: shrink in size

B1: IFN-γ: cytokine interferon gamma, used to induce APOL1 expression (protein, UniProt P01579 24-161, looked up)
Interferon gamma: QDPYVKEAENLKKYFNAGHSDVADNGTLFLGILKNWKEESDRKIMQSQIVSFYFKLFKNFKDDQSIQKSVETIKEDMNVKFFNSNKKKRDDFEKLTNYSVTDLNVQRKAIHELIQVMAELSPAAKTGKRKRSQMLFRG
APOL1 agonist screen result (APOL1 expression; 24-hour screen): strong agonist for APOL1 expression
saturating dose for APOL1 expression (APOL1 expression; 24 hr, fluorescent intensity of APOL1 in organoids): 100 ng/mL
APOL1 expression on titration (APOL1 expression; IFN-γ titration): dose-responsive activation of APOL1 expression
effect on endothelial networks and tubular structures [2]: pronounced loss of endothelial networks and tubular structures
podocyte junctional tracks ([1]; 7d treatment, ZO-1, Synaptopodin staining): appear intact
loss of GFP-PODXL [1, 3]: does not result in enhanced loss of GFP-PODXL
organoid size [1, 3]: no significant change
